Data on 1 substance can be found in paper PMC9283937.

“And” between values parts separate entries of the source, which are not always exact repeats. Equal values may be shown once.

In experiment [1] the target is LarE from Thermotoga maritima, C-terminal His6-tagged (Thermotoga maritima). Kind of experiment: SEC-MALS; Superdex 200 Increase 10/300 GL, 100 mM Tris-HCl pH 7.2, 300 mM NaCl, 0.5 ml/min; miniDAWN TREOS detector.
Experiment [2] shares this target. Kind of experiment: native MS; nondenaturing nano-ESI-MS (Q Exactive UHMR) under anoxic atmosphere; cluster-assembled His6-tagged LarETm after anaerobic incubation with IscSEc and L-cysteine; CID 15 eV.

“LarE from Thermotoga maritima, C-terminal His6-tagged (enzyme)”: the stoichiometry N is 2 in experiment [1]; 2 and 4 and 6 in experiment [2].
